The results in this text go back to publication PMC8981723.

This assay has as its target Human PLA2G1B (phospholipase A2 group 1B), active form (human) (UniProt P04054).

Some results are limits rather than exact numbers.

As for “Recombinant HIV-1 gp41 MN protein (gp41 MN (565-771Delta642-725)) (from UniProt P05877 565-771) (domain or fragment)”, the PLA2G1B enzymatic activity ([3H]AA release from labeled human CD4 T cells), PLA2G1B 63 nM, gp41 0.68 nM-340 nM is over 20 fold.
